Target: human epidermal growth factor receptor (EGFR), stably over-expressed on rat 9L gliosarcoma cells (human) (UniProt P00533)
Test: X-gal staining of live cells incubated with β-gal-labelled ligand complex

For “EGF ligand-complex with full-length β-gal reporter (EGF-B-SA-B-β-gal)”, the percent of cells labelled was greater than 75%.

From publication PMC2835542
